Source: patent publication EP4722251

Legend:
[1] = target: Recombinant human TFPI protein; experiment: BLI; fit kinetic; antibody as IgG; antigen as not_told; on the surface: binder; avidity not_told; settings: 30.0 °C; for koff: pH 7.4
Human TFPI/His = experiment: ELISA; fit not_stated; antibody as IgG; antigen as monomer; on the surface: target; avidity possible

Substance	Koff Ratio (pH6.0/pH7.4) ([1]; pH 6.0, second pH 7.4)	koff [1]	koff ([1]; second pH 6.0)	EC50 (Human TFPI/His; pH 4.0)	EC50 (Human TFPI/His; pH 4.5)	EC50 (Human TFPI/His; pH 5.0)	EC50 (Human TFPI/His; pH 5.5)	EC50 (Human TFPI/His; pH 6.0)	EC50 (Human TFPI/His; pH 6.5)	EC50 (Human TFPI/His; pH 7.4)
Concizumab	0.9	4.01e-07 s⁻¹	3.6e-07 s⁻¹	16.5 ng/mL	4.94 ng/mL	4.83 ng/mL	5 ng/mL	6.1 ng/mL	4.9 ng/mL	4.25 ng/mL
Marstacimab	–	–	–	5.87 ng/mL	3.15 ng/mL	3.97 ng/mL	2.18 ng/mL	3.19 ng/mL	3.87 ng/mL	4.01 ng/mL
